Test results as given in publication PMC10873642.

Molecular target: α-synuclein, 140-residue isoform (αSyn-140) (human) (UniProt P37840)

α-synuclein splice isoform αSyn-112 (lacking exon 5) (from UniProt P37840-2 1-112) (natural protein)
decrease in aggregation half-time (t1/2) by ThT fluorescence of 90% (45 µM) αSyn-140 co-incubated with 10% (5 µM) αSyn-112 monomers, against 100% (50 µM) αSyn-140: 25%
